Laboratory results published in the DeepSol protein solubility set.

Experiment: soluble on expression in E. coli; label from the status in PepcDB or PDB records

| Sequence | soluble on expression in E. coli |
| --- | --- |
| MKQCAHTKVWQTIVAEAREQAEQEPMLASFYHATIIKHDSLKAALSYILANRLNTASMPAMAVREVIEEAFAADPSISEAAACDICATVNRDPAVSMYSMPLLYLKGYHALQGYRVANWLWRQGRKALATYFQNQISVACQVDIHPAARIGRGIMLDHATGIVIGETAVVEDDVSILQDVTLGGTGKECGDRHPKIREGVMIGAGAKILGNIEVGEGAKIGSGSVVLQAVPPHTTVAGVPARIVGRPQSDKPSLDMDQQFNGRSQTFIGGDGI | not soluble |
| MKQESASQSTPPPSLSPAPSSAQPFWGDGDPQALWIFGYGSLVWKPDFAYSDSRVGFVRGYSRRFWQGDTFHRGSDKMPGRVVTLLEDHEGCTWGVAYQVRGEQVNEALKYLNVREAVLGGYDTKEVTFYPQDTPDQPLTALAYVATPQNPGYLGPAPEEVIATQILACRGFSGHNLEYLLRLADFMQLCGPQAQDEHLEAIVDAVGTLLPCSYLPEQPLALT | soluble |
| MKQFKIRSVLQSIALLVLAGTAAAEPKPEKITHGRFEQIPVLRPDGEPQRVVIWFSDAGHVDQRTRQAEILRQDGAMVALVDTTHLYKVLAADSNHCTFSVGDVENLSRYLQAYYRDKTYRLPLLVGDGDGSGLVYAVAAQATENILAGVVSDGLCPVVVPTQAVCGAGVASDQHLKPAPVAAPLLVMTVSSAHCPAQLTSGFVRKVALGREIRLAASADLLPRLRAALRVLGAQKGVSLPPPPADLDGLPVVEVPSKAQKKSDTFAIFVSGDGGWAEIDKKVAGHLADADIPVVGLDSLRYFWSERTPEGFAKDLDRIARFYAHHWKRNRLLLVGFSQGADVLPAAINKLSPNTRQIIRMTALLSLGKYAHYEFHVSNWISTDDEGIPIAPDMVKLRSTRTVCIYGVDDQETLCPSLPQQNRRVALPGTHHFNGDYETVAKTILAQMEAAPLEHHHHHH | not soluble |
| MKQGKFSVFLILLLMLTLVVAPKGKAEAASSGWQPVSGISGCKIRVITDAYTYTKSATSIDAYAETNGKCGKLNYKSFGVSIVEGGDIGPQYSGYFSSRTPTKKFYFSKLPKPTGTPWAVGLSVYKGKAKGAAFVYINPQKRLEHHHHHH | not soluble |
| MKQVKITTTSDLINGGCNACPNVKCTNYLVHVEDETIALETLTVADLVTLLALKEGFRQKLVMEMFEEYTVFERETHQVVFKEEETRILFQSKKQTIQSTLLCKEPQQVFQETQQILHQLFELEPFEFELVEETDE | not soluble |
| MKQYGFYVDSSRCSGCKTCQVSCKDNKDLDVGPKLRRVYEYGGGSWVKEGESWHHDTFTYYLSIACNHCDEPVCVSGCPTGAMHKRKEDGLVVVDDSVCVGCRYCEMRCPYGAPQFDTQANVMRKCDGCLDRLENNLRPICVDSCPQRALDFGPVDELRAKYGTENQIAPLPSASFTHPNLIIKPHPKARPTGDTEGAIMNIREVRHA | not soluble |
| MKRADDFQQRRAHLANLSDEELQTRFWEMAEKIVDPLLDLGKKNTTPSIERSVLLRMGFSSLEAKAIVDKTMDRGLMGKGAGHIVYKIAKEKNISVREAGLALSEGKYWDDAIQIFKGGVK | soluble |
| MKRIADEELVREERAEESTQKWLQDAKFQEILGADSSHKSLFVLLSHPDGSQGILLANKSPFSEEKSDIEKLLATAQLQEISRNDIFGSYNIEIDPKLNLLKSQLIYPINDRLIAKYRQEEKFVIRETPELYETVTRPYIEKYQLNLNWVYNCLEKRSEVDKIVFEDPDNENGFVLLQDIKWDGKTLENLYVLAICHRHGLKSVRDLTGDDLEMLYNMRDKSLEAINQKYGLKTDQIKCYFHYQPSFYHLHVHFINLKYDAPASTTMSAILLDDVINNLELNPEHYKKSTLTFTRKNGDKLMEMFREALKN | not soluble |
| MKRSIAPLLVCPACLPKERPLELTATAEADGDITAGHLSCKGCRRRFPIRDGIAVLLPDPDTGPSGGQWKYEEQGTLATYLWSHFADLAGDPEAGDAYASWASALAGNAETSLDAGCAVGRLTFELGQRSGLAVGFDLSLTFIRAARQLARERQIRFSLPREGNLRDEFRLTLPDCWRTDEVEFVVADALAIPFARETFDRTASLNLIDRVSYPLAHLYEMNRVARLSGASFLLSDPFSWSTANAPEEKWLGGTESGPYSGRGMDNVKAILGGKEAIIAPPWTVAREGSVWWKIRSHRNHFELIRSEFLVAERLEHHHHHH | not soluble |
| MKRSLLACAMSCMMLTVSAHSDFDVRNVDSQFHVPEIGGGVGLIDQQKERQIGEKVFREIQKQMPVVHDPWLQEQYSQIFLRVLAQTSITQPVGLVIIKDPQINAFAVPGGLFALNTGLIANARNIDEVAGVMAHEVAHVTQRHYSRSQEAFKGQGLLALAGILVGAAVATTSNADVGSAVMLGTQAALMDRQLTYSRNQEREADRIGMQYMYAAGYNPQSMADFFETMQRSRVGSSFMPDFWMTHPLTTERMSEARLRANQLPKVETKLYDPNFQLLKWYTLAVSDPSSEKILENVVKQGNKEAQLALGAYYVGQGDFVKAQKQLDDIKSQFNENTLYCLIQTNIYLGQNELDQAYSSIVNIQRAMPESRALAYKLAEVMILQGKAGDTLQLIQPFVNRNPRDLEGWQLMQQASSIDRISPVQTVNTLRYRAEVQFWSGNEENAIKSLLHAQRLAKGNESLSARIDSRLKQMQSDYTMKI | not soluble |
| MKRTPLFEKHVELGAKMVDFAGWEMPLYYTSIFEEVMAVRKSVGMFDVSHMGEFLVKGPEAVSFIDFLITNDFSSLPDGKAIYSVMCNENGGIIDDLVVYKVSPDEALMVVNAANIEKDFNWIKSHSKNFDVEVSNISDTTALIAFQGPKAQETLQELVEDGLEEIAYYSFRKSIVAGVETLVSRTGYTGEDGFELMLEAKNAPKVWDALMNLLRKIDGRPAGLGARDVCRLEATYLLYGQDMDENTNPFEVGLSWVVKLNKDFVGKEALLKAKEKVERKLVALELSGKRIARKGYEVLKNGERVGEITSGNFSPTLGKSIALALVSKSVKIGDQLGVVFPGGKLVEALVVKKPFYRGSVRREV | soluble |
| MKRVLIVGATGTIGGVVRQTLLNETDNQLTLFARSANRLKTSERESVIAGDVTKDSDLDKAIAGQDVVFVALSGSLGRFAQKIVAAMDRNKVSRLLFITSMGIYDEIPASVGASGNLSSNPMLRTYREAADVVEASDLNYTLIRPGWFTGGPVDYEITKKGEPFGGHDVSINSIADFVKNAIVDNDYYAHDSVGLNAK | not soluble |
| MKRYTVKDIEALLPKLGADDPRWEMLRQDERKSVQALLARFERQKARRHAIEQRWEELMRYERELYAAGVRRIAGIDEAGRGPLAGPVVAAAVILPKDAYLPGLDDSKRLTPEKREALFAQIEACAVAIGIGIVSAAEIDERNIYEATRQAMAKAVNALSPPPEHLLVDAMAVPCPLPQQRLIKGDANSASIAAASVIAKVTRDRWMKELDRRYPQYGFARHMGYGTPEHFEAIRRYGVTPEHRRSFAPVREVLKASEQL | soluble |
| MKSAIPSLMVQGTTSDAGKSVLVAGLCRVLARKGINVAPFKPQNMALNSAVTKDGGEIGRAQAVQAQACNIEPTVHMNPVLIKPNSDTGAQIILQGKALSNMDAASFHDYKKVAMNTVLDSFSKLTKEFDSIMIEGAGSPAEINLREGDIANMGFAEAADVPVIIVADIDRGGVFAHLYGTLALLSESEQTRVKGFVINRFRGDIRLLQSGLDWLEEKTGKPVLGVLPYLHGLNLEAEDAITAQQELNSEVKLNVVVPVLTRISNHTDFDVLRLNPDINLSYVGKGEKI | not soluble |
| MKSGERSAVADRAQQIMSAARELLDAEGPDALSMRRIAERVGIRAPSLYKHFADKAALVAGLQAQGLTLLAEVQEAAEAEIGADPPLLVLGYAYRRHALASPHLYRITHGWPLARTALPEGLEDRAALPLARAVHGDINIARSFWAFAHGMVVLELDGRFPPGADLDVAWRTGCEAFTQAIRNRPHGSTA | not soluble |
| MKSIRSRKSRRLRANRRKKRVHQPKLRQKPAKASQSRSRRMSRTDYISENVYIVLVYPKYQGNIGAVARSMWNSGLRHLIIIGNRPDDEAFARSMGGRFILENAEIYDDFASVISRFNVIAATSSTASSNEKHFRRLPLTPEKFWEEMSDQGGKIALVFGREDDGLRNEEIEKCNYFINIPGNPEYPVYNLSHAVAIILYVMFTRFNPPENIEIRAIEPDHEDLMLRNIIEVMRLTSYPEHKIRNTELLLRRLIARSRMSDREYFRMMGVIRRVKESLQRPLENESDHQRN | not soluble |
| MKSLQALFGGTFDPVHYGHLKPVETLANLIGLSRVIIMPNNVPPHRPQPEASSAQRKYMLELAIADKPLFTLDERELQRNAPSYTAQTLKAWREEQGPEAPLAFIIGQDSLLNFPTWHDYDTILDNTHLIVCRRPGYPLEMTQAQHQQWLEQHLTHTPDDLHQLPAGKIYLAETPWLNISATLIRERLEKGESCDDLLPENVLNYINQQGLYR | not soluble |
| MKSLRFQSVFDIIGPVMIGPSSSHTAGAVRIGKIVSSIFDDTPTEVEFQLFNSFAKTYRGHGTDLALVAGILGMDTDDPEIPNSLEIAHKRGIKIVWTIQKDSNAPHPNTTKITVKNAHKTISVTGISIGGGNIQVTELNGF | not soluble |
| MKSNKSKYKLVVDYVIDGINEGRLKKGAWIPSLNEFREMYGLSRDTVFSGIRELKSRGIIKSNPGVGYYIVSTRVPFKHNIFLLFNEFNEFKEDIYNSFMETVGNSATVDLYFHNYNRKVFETLVNNANHKYTTYIIMSGKFADIGPLLESLSGNVFLLDHYHSELKGKYSSVFQNFEKDTYEALVYGLSNLRKYKHIVMVQKDSKEPFERYDGLRAFCKEHGFTHECIGEIQGREIVKQEVFMVVNDRDLVNLLKQADRQQLVPGKDFGIISYNDTPLKEVLAGGITTLSTDFKLMGRTMASLINKKTIETIENPWNLNIRNSL | not soluble |
| MKSNPAIQAAIDLTAGAAGGTACVLTGQPFDTMKVKMQTFPDLYRGLTDCCLKTYSQVGFRGFYKGTSPALIANIAENSVLFMCYGFCQQVVRKVAGLDKQAKLSDLQNAAAGSFASAFAALVLCPTELVKCRLQTMYEMETSGKIAKSQNTVWSVIKSILRKDGPLGFYHGLSSTLLREVPGYFFFFGGYELSRSFFASGRSKDELGPVPLMLSGGVGGICLWLAVYPVDCIKSRIQVLSMSGKQAGFIRTFLNVVKNEGITALYSGLKPTMIRAFPANGALFLAYEYSRKLMMNQLEAY | soluble |
| MKSRFSARQQNSDNTADENKSTTTAVLLTNLGSPDEPTTSAVRRYLREFLSDTRVVEIPRLIWLLILHGIILRIRPAKSAKLYQTVWQDDGAPLISITAAQKEKMATKIKSQYGDNVIVDFAMRYGNPSIASVLQKFQQQGVDKLVVLPLYPQYAGPTTASTFDAVSKELQKWRYIPSIHFLNTYHNNPFYIQALAETVKEHVASHGKPERLVLSYHGMPELFHKWGDPYYDFCQE | not soluble |
| MKSRTRWLTSEELVTLFEAMRQAPGFSVENGLSIKLLLLLAVRKGELIGARWSEFDLDKAVWYLPAERTKTESAIDIPLPPIAVEWLRELQRLAGVSKWVLPARKMQDRMIPHIAESTLSVALAKIKHGLEPFTIHDLRRTARTHFEALGVAPHIAERCLNHKIKGIEGIYNRHDYFEERKAALEAWAGLLLQIERGEADKVVPIRRAVATKQLEHHHHHH | not soluble |
| MKTDVRWATFNIRYDNPQDSLNNWQYRKDRVCQFIKDHELDIVGMQEVLHNQFQDLRAGLPEYDGIGVGRDDGKTAGEYAPLFYRKDKYEVLDSNTFWLAENPDSVGMMGWDAVCVRIATWAKFKDKATGKIFMAVNTHFDHVGEEARRQSALLIIRKIKEIVGERPAVVTGDFNVTDASDAYETITTNEFVMKDAYKTAARVTGVDYTFHDFARIPAEDCEKIDFIFVTPQVLVKSCEIPAEVPEALLSDHNPQLADLELEHHHHHH | soluble |
